Experimental findings from patent US20240261427A1, “LINKERS, DRUG LINKERS AND CONJUGATES THEREOF AND METHODS OF USING THE SAME” (ProfoundBio US Co., priority 2021, published 2024) are described below.

This test deals with Hela cells. Nature of the test: Flow cytometry binding to Hela cells. Type of test: cell-based, human. The conditions noted are these: transfection supernatant, FIG. 6. As for the experimental part: The binding activity of the antibodies to Hela cells (ATCC® CCL-2, provided by COBIOER) and to RPTEC/TERT1 cells (ATCC® CRL-4031, provided by COBIOER) was tested by flow cytometry using the transfection supernatants. Briefly, target cells were digested with 0.02% EDTA-2Na, centrifuged at 1500 rpm for 3 mins, and resuspended with PBS. After counting, the cells were added to a 1.5 ml centrifuge tube with 1×10^6 cells per tube, centrifuged at 1500 rpm for 5 minutes, and the supernatant was discarded. Then all the operations were carried out on an ice bath. 100 μL of transfection supernatant was added to each 1.5 ml centrifuge tube. Blank cells, blank cells plus secondary antibody, medium and HEK293 supernatant were set up as the controls. The reaction was performed on an ice bath for 1 hour. Then the cells were pelleted and washed twice with PBS. The secondary antibody, goat anti-Human IgG (PE, abcam, ab98596), was diluted (1:200) and added using 100 μL per tube. The reaction was performed on an ice bath for 1 hour in the dark. The cells were pelleted again and washed twice with PBS, resuspended in 300 μL PBS, and FL2 fluorescence readings were measured by cytometry. The results were analyzed by FlowJo™10 software.
Anti-FOLR1 antibody binding to Hela and RPTEC/TERT1 cells was tested by FACS. The study was carried out as described above. […]

B1: F40: anti-FOLR1 antibody clone; "Clone F40 has a different HCDRs and LCDRs, and with different HFR and LFR" (antibody, V domains shown)
VH: EVQLLESGGGVVQPGRSLRLSCAASGFTFSSYAMHWVRQAPGKGLEWVAVISYDGSNKYYADSVKGRFIISRDNSKNTVYLQMNSLRAEDTAVYYCARPTYVFTYTGSSFDYWGQGTQVTVSS
VL: DIQVTQSPSSLSASLGDTVSITCRASRGLTDSVAWYQQKPGQAPKLLIYAASTLQSGVPSRFGGSGSGSYFTLTITSLQPEDVATYYCQNYKSAPWTFGQGTKVEIK
In the case of B1, the Hela cell binding entry is reported as “weakly positive”.
